Test results as given in the supplement of paper PMC9112550, “Optimization of the antimicrobial peptide Bac7 by deep mutational scanning” (BMC Biology, 2022).

Each sequence was assayed on Escherichia coli TOP10 (assay: shrunken log2 fold change of peptide-encoding DNA abundance (4.5 h post-induction vs induction); higher = less antimicrobial activity (less host growth inhibition)). Conditions: time post-induction: 4.5 h; library: site-saturation at positions 5, 18, 19, 20.
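Note: peptides expressed intracellularly from a pBAD plasmid library in pooled LB shake-flask culture, induced with 0.3% L-arabinose, DNA abundance read by NGS, three biological replicates, DESeq2 with apeglm shrinkage.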

RRIRARPPRLPRPRPRPRYQPRP was tested. Which “shrunken log2 fold change” value did it give?
Its value is -0.274.

With RRIRARPPRLPRPRPRPSCKPRP as the sequence, how does the “shrunken log2 fold change” value read?
The value was -0.291.

Which “shrunken log2 fold change” value does the source give for RRIRARPPRLPRPRPRPSCSPRP here?
The value was 0.0274.

Which “shrunken log2 fold change” value does the source give for RRIRARPPRLPRPRPRPSDTPRP here?
The value was -0.339.

How did the “shrunken log2 fold change” value turn out when RRIRARPPRLPRPRPRPSEDPRP was run?
The value was 0.396.

How did the “shrunken log2 fold change” value turn out when RRIRARPPRLPRPRPRPSFGPRP was run?
Its value is 1.08.

For RRIRARPPRLPRPRPRPSHGPRP, which “shrunken log2 fold change” value is on record?
Its value is 0.115.

With RRIRARPPRLPRPRPRPSHHPRP as the sequence, how does the “shrunken log2 fold change” value read?
The value was -0.309.

RRIRARPPRLPRPRPRPSHIPRP was tested. Which “shrunken log2 fold change” value did it give?
Its value is -0.523.

For RRIRARPPRLPRPRPRPSIAPRP, which “shrunken log2 fold change” value is on record?
Its value is 0.186.

RRIRARPPRLPRPRPRPSIFPRP was tested. Which “shrunken log2 fold change” value did it give?
Its value is -0.101.

With RRIRARPPRLPRPRPRPSIKPRP as the sequence, how does the “shrunken log2 fold change” value read?
The value was -0.133.

With RRIRARPPRLPRPRPRPSIWPRP as the sequence, how does the “shrunken log2 fold change” value read?
Its value is 0.352.

How did the “shrunken log2 fold change” value turn out when RRIRARPPRLPRPRPRPSKTPRP was run?
The value was 0.314.

RRIRARPPRLPRPRPRPSKYPRP was tested. Which “shrunken log2 fold change” value did it give?
Its value is -0.464.

With RRIRARPPRLPRPRPRPSMRPRP as the sequence, how does the “shrunken log2 fold change” value read?
The value was 1.03.

How did the “shrunken log2 fold change” value turn out when RRIRARPPRLPRPRPRPSPAPRP was run?
The value was 0.616.

With RRIRARPPRLPRPRPRPSPDPRP as the sequence, how does the “shrunken log2 fold change” value read?
Its value is 0.553.

For RRIRARPPRLPRPRPRPSPKPRP, which “shrunken log2 fold change” value is on record?
Its value is 0.303.

Which “shrunken log2 fold change” value does the source give for RRIRARPPRLPRPRPRPSRIPRP here?
The value was 0.163.

For RRIRARPPRLPRPRPRPSSFPRP, which “shrunken log2 fold change” value is on record?
The value was -0.196.

For RRIRARPPRLPRPRPRPSTRPRP, which “shrunken log2 fold change” value is on record?
Its value is 0.23.

Which “shrunken log2 fold change” value does the source give for RRIRARPPRLPRPRPRPSVCPRP here?
Its value is 0.348.

For RRIRARPPRLPRPRPRPSVGPRP, which “shrunken log2 fold change” value is on record?
The value was 0.324.

With RRIRARPPRLPRPRPRPSVTPRP as the sequence, how does the “shrunken log2 fold change” value read?
Its value is 0.0595.

How did the “shrunken log2 fold change” value turn out when RRIRARPPRLPRPRPRPSWIPRP was run?
Its value is -0.0935.

Which “shrunken log2 fold change” value does the source give for RRIRARPPRLPRPRPRPSYAPRP here?
The value was -0.165.

RRIRARPPRLPRPRPRPTAHPRP was tested. Which “shrunken log2 fold change” value did it give?
The value was 0.485.

Which “shrunken log2 fold change” value does the source give for RRIRARPPRLPRPRPRPTCQPRP here?
The value was 0.431.

Which “shrunken log2 fold change” value does the source give for RRIRARPPRLPRPRPRPTCSPRP here?
The value was 0.483.

Which “shrunken log2 fold change” value does the source give for RRIRARPPRLPRPRPRPTDEPRP here?
Its value is 0.594.

How did the “shrunken log2 fold change” value turn out when RRIRARPPRLPRPRPRPTDHPRP was run?
The value was 0.0934.

Which “shrunken log2 fold change” value does the source give for RRIRARPPRLPRPRPRPTEAPRP here?
Its value is 0.453.

Which “shrunken log2 fold change” value does the source give for RRIRARPPRLPRPRPRPTFAPRP here?
The value was 0.347.

With RRIRARPPRLPRPRPRPTFDPRP as the sequence, how does the “shrunken log2 fold change” value read?
Its value is 0.399.

Which “shrunken log2 fold change” value does the source give for RRIRARPPRLPRPRPRPTGDPRP here?
Its value is 0.604.

For RRIRARPPRLPRPRPRPTGEPRP, which “shrunken log2 fold change” value is on record?
Its value is 0.0455.

With RRIRARPPRLPRPRPRPTGRPRP as the sequence, how does the “shrunken log2 fold change” value read?
The value was 0.215.

Which “shrunken log2 fold change” value does the source give for RRIRARPPRLPRPRPRPTIGPRP here?
The value was 0.176.

Which “shrunken log2 fold change” value does the source give for RRIRARPPRLPRPRPRPTLHPRP here?
Its value is 0.584.

How did the “shrunken log2 fold change” value turn out when RRIRARPPRLPRPRPRPTLSPRP was run?
Its value is 0.801.

For RRIRARPPRLPRPRPRPTMKPRP, which “shrunken log2 fold change” value is on record?
The value was 0.296.

For RRIRARPPRLPRPRPRPTNQPRP, which “shrunken log2 fold change” value is on record?
The value was 0.153.

RRIRARPPRLPRPRPRPTPAPRP was tested. Which “shrunken log2 fold change” value did it give?
The value was 1.05.

With RRIRARPPRLPRPRPRPTPDPRP as the sequence, how does the “shrunken log2 fold change” value read?
The value was 0.848.

Which “shrunken log2 fold change” value does the source give for RRIRARPPRLPRPRPRPTPHPRP here?
Its value is 0.598.

How did the “shrunken log2 fold change” value turn out when RRIRARPPRLPRPRPRPTQWPRP was run?
The value was 0.457.

Which “shrunken log2 fold change” value does the source give for RRIRARPPRLPRPRPRPTSNPRP here?
The value was 0.00789.

With RRIRARPPRLPRPRPRPTSTPRP as the sequence, how does the “shrunken log2 fold change” value read?
Its value is 0.0502.

RRIRARPPRLPRPRPRPTVAPRP was tested. Which “shrunken log2 fold change” value did it give?
The value was 0.779.

Which “shrunken log2 fold change” value does the source give for RRIRARPPRLPRPRPRPTVLPRP here?
Its value is 0.106.

For RRIRARPPRLPRPRPRPTVRPRP, which “shrunken log2 fold change” value is on record?
The value was 0.302.

For RRIRARPPRLPRPRPRPTVTPRP, which “shrunken log2 fold change” value is on record?
Its value is 0.707.

How did the “shrunken log2 fold change” value turn out when RRIRARPPRLPRPRPRPTVVPRP was run?
Its value is 0.238.

RRIRARPPRLPRPRPRPTWLPRP was tested. Which “shrunken log2 fold change” value did it give?
Its value is 0.33.

For RRIRARPPRLPRPRPRPTWSPRP, which “shrunken log2 fold change” value is on record?
The value was 0.67.

For RRIRARPPRLPRPRPRPTYMPRP, which “shrunken log2 fold change” value is on record?
Its value is -0.36.

With RRIRARPPRLPRPRPRPTYTPRP as the sequence, how does the “shrunken log2 fold change” value read?
Its value is -0.0355.

Which “shrunken log2 fold change” value does the source give for RRIRARPPRLPRPRPRPVAGPRP here?
Its value is 0.35.

How did the “shrunken log2 fold change” value turn out when RRIRARPPRLPRPRPRPVCSPRP was run?
Its value is 0.665.

Which “shrunken log2 fold change” value does the source give for RRIRARPPRLPRPRPRPVDRPRP here?
The value was 0.193.

With RRIRARPPRLPRPRPRPVDTPRP as the sequence, how does the “shrunken log2 fold change” value read?
The value was 0.186.

Which “shrunken log2 fold change” value does the source give for RRIRARPPRLPRPRPRPVEFPRP here?
Its value is 0.108.

How did the “shrunken log2 fold change” value turn out when RRIRARPPRLPRPRPRPVFVPRP was run?
Its value is 0.179.

How did the “shrunken log2 fold change” value turn out when RRIRARPPRLPRPRPRPVGEPRP was run?
The value was 0.482.

RRIRARPPRLPRPRPRPVGGPRP was tested. Which “shrunken log2 fold change” value did it give?
The value was 0.571.

How did the “shrunken log2 fold change” value turn out when RRIRARPPRLPRPRPRPVGSPRP was run?
Its value is 0.383.

With RRIRARPPRLPRPRPRPVGTPRP as the sequence, how does the “shrunken log2 fold change” value read?
Its value is 0.441.

Which “shrunken log2 fold change” value does the source give for RRIRARPPRLPRPRPRPVHKPRP here?
Its value is 0.2.

With RRIRARPPRLPRPRPRPVKLPRP as the sequence, how does the “shrunken log2 fold change” value read?
The value was -0.59.

With RRIRARPPRLPRPRPRPVKTPRP as the sequence, how does the “shrunken log2 fold change” value read?
The value was 0.232.

With RRIRARPPRLPRPRPRPVLFPRP as the sequence, how does the “shrunken log2 fold change” value read?
The value was 0.268.

RRIRARPPRLPRPRPRPVLGPRP was tested. Which “shrunken log2 fold change” value did it give?
Its value is 0.419.

RRIRARPPRLPRPRPRPVLIPRP was tested. Which “shrunken log2 fold change” value did it give?
Its value is -0.179.

With RRIRARPPRLPRPRPRPVLRPRP as the sequence, how does the “shrunken log2 fold change” value read?
The value was 0.228.
